Reference: the DeepSol protein solubility set

assay: soluble on expression in E. coli; label from the status in PepcDB or PDB records

| Sequence | soluble on expression in E. coli |
| --- | --- |
| MRGVVFLHAFPYSPRMWEGEVALLKTRLPVLAPHYLGLSLGKAAEKVLGEMDEAGLEQAVFVGLSMGGYLVFELFRKAPERFLGTVLSSTRAGPDSEEAKRNRYALRERVLKDGVGFLPEALLPSHLGRTTQATKPEVVEKVRAIILEASPEAVAETLVALAERPDSTPLLSRMQVPALVLVGEEDTLTPPEEARRMWKALPDARMLILPETGHLANLENPKAFRTALLGFLAEFF | soluble |
| MRGWHHHHHHGIRMRARYPSVVDVYSVEQFRNIMSEDILTVAWFTAVWCGPCKTIERPMEKIAYEFPTVKFAKVDADNNSEIVSKCRVLQLPTFIIARSGKMLGHVIGANPGMLRQKLRDIIKDN | soluble |
| MRIAILGGGVAGSTLAYLLSRINYEVTIFDINQHYVKPCGDIVPNIYTPPFNWKETFGIRRFSFYIDGEKIYDVEYRHTKWLVIDKWKWINDMRKSSKVIVTHDNNAKEFDYVIDSRGPYPMDREVVYTTRAIIETEEFDDEAILEFNTRYTGFYWIFPSKENEYNIGAGFLEYKNSKELLNYYLRKRFKNFEVKDIRGAPISIGSVKNKKLRIGEARGLVFPLSGEGIRPSAISAEYAFEAIHKEKDLDGFLNEKLSIIEKRIKIQKMLLDLYRYSSLNLRKTFMRIFFKNEVLIDTYLEDKMDLNGIIESLKSVRANGGIIRKFEEQERLEHHHHHH | not soluble |
| MRIALIIFPIHASHGCILQTYALYRTLRKLGHDVSIIDRQWDKLSLKNQLVYAVKSLIISIKRKCIRPLTIEGTRKIIMSELQTFVDKHLSNRKIYFRTPRYEELPHYDAFIVGSDQTWRPKYVSDILYYYLCFVPAEEKVKRIAYAPSFGTEEWEYSEQQTLQCRELVSRFDAIAVREDSGAKLCGKYLGINVEHVLDPTMLLNKEDYLSETGIMPSEQNRLSYYLLDNSKSKMQIVEEICKELHLTVQRINTETENHKAGIKERVAPSIEKWIEGFVNSKFIVADSFHATVFAIIFNKHFITIANKDRGIARFESLLKMFGLENRLITDIRQVTPELVHESIDWGKVNQTMWAKQSSSLDYLKFNLGNI | not soluble |
| MRIFLLFLFFVLFTFGVEGYVIEEINGSTGLRIHKEIKRKVYITEDALITETEKEFMVQKIENGLPRIYRVIKSSKSYMDFSKMTPLFLVSLPFLDCKQRVCVVNRGAFRPTNEYKKIRGFKARKVVVESHALGKKTTLIQWYTKEWKELVEANRLEDKFYVNFIRAIMKEKNLSEANIPLKEIQNFLKEINEKFGGVVRTQQQMPLFNTYSEVISVKKTEIPDYIYKLPEGYTKIK | not soluble |
| MRIGLFTDTYFPQVSGVATSIRTLKTQLEKMGHNVFIFTTTDRDVDRYEDWQIIRIPSVPFFAFKDRRVAYRGFSKALEIAKQYKLDIIHTQTEFSLGLLGIAIAHELKIPVVHTYHTQYEDYVRYIAKGMVIRPSMVKYIVRGFMSDLDGVICPSEIVYDLLLKYKVAAEKRVIPTGIELEKFQRPEITEEDVSDLRAKLGISSDETMLLSLSRVSYEKNIQAVMAALPSVLEEEDKVRLVVAGDGPYLPHLKSQAKKLGIEDKVVFTGMIAPGETALYYKAADFFISASTSETQGLTYLEALASGTPIIAHGNTYLDNIITDKMFGILYYHDNDLAGAILEAAIVTPEKDETKWAEKLYEISAENFGKRVYEYYLDLTISKDFHNDLNGEDSTMKRLTRMVTHLPTKAITLPVNGSVRIIKGSAKQVKKIRNIKKFLDLEHHHHHH | soluble |
| MRIIEQDPWLRPYESVIESRLKYARKRETDLTGGRSGGLSDFANGHLYYGLHQDGDSWVIREFAPEATAVYLIGELSRWRRLPQFRFAPVDEAGSWELRLSCRLLPHGSRYRLFFEWPGGEGERIPAWCNRVEQDPETYLFYAQVWVPDTPYEMKHPHPNR | not soluble |
| MRILVNLILFSLIPLAFSNENSSSYLIARPLIFETQLKNINDNVNLHCTSWRFAAETNNLAPWKTIPAECADYVKDYLMGEGYVVDVERVSEEAKVYASSFESNGDGKDIWIFDIDETLLSNLPYYMEHGCGLEVFDHSKFDMWVEKGIAPAIAPSLKLYQKVIHLGYKVILLTGRRENHRVITVENLRNAGFHNWDKLILRSLDDRNKTATMYKSEKREEMVKEGYRIRGNSGDQWSDLLGSAMSERSFKLPNPMYYIP | soluble |
| MRKIIVGSRKSKLALTQTNWFIDQLKALGLPYEFEVKEIVTKGDVILDVTLSKVGGKGLFVKEIEHALLTKEIDMAVHSMKDMPAVLPEGLMIGCTPKRVDPRDAFISKSGASYKELAEGAILGTSSLRRSAQLLAARPDLQVKWIRGNIDTRLRKLKEEDYDAIILATAGLQRMGWDNEVITEHLDETLCVPAVGQGALAIECREDDKDLLQLLAHINDAVTEKTVAAERVFLHKLEGGCQVPIAGYATITENDAIELTALVGSMDGSVLLKETVVGTDPEKVGLEAADRLIKQGAKELILAANKGQQ | not soluble |
| MRKLALVPIQFYRYAISPLMASHCRFYPSCSCYAYEAIDNHGLLRGGWLSIRRLGRCHPWNPGGYDPVPAVPTSRSSSMAELEHHHHHH | not soluble |
| MRKLKYQRDFFPLLHLNYGSNWRCGMDRIAYFKSLLEKNPDNPMVHYSLGLEYFKVKDYENAIKHLERYLELQEDEGAAYRTLAKCYEELGEFQKAIEVLEEGIRQAMKYNHPSMAQEYQQWIEELKGMAFLEHHHHHH | not soluble |
| MRKLNNHDVHKRYQDRLEEDVEFTINYELPLSCLWSTIKDFSSDFEEKTEAFFILFKELLRRGHLKLQRDGQIIGHTPEEWEQIFREVWPEYEIEPNPLPGYAPFDIGMWLTVEAPAYAVWIDPEDGSEYWAG | soluble |
| MRKLSKRLLGTVHVATSSTPPGSPFSLVNRQFLLLPTMDKLMGEICREKQIVDRCKMSIDRKEPYDLISMKQQIEISLSKITAMKMRLFHMQNNSETHNSPCSINQQILNTQLLCHGARKVRESLRKDESPNEKVLRETEQTILVLNEKLDLLSNCCSQKESSLTPISVRRSRGGPSKTNNFPVAVSGFLKIRVTGLADLPNNTKHRSGRYASEHFAQLIKKKKSMFGRHGFRRYPNRSSAVNDYIIVIHVGGKEVATMVWNEKKTMVGGDEETIQLFKSRQLDFEIYHTDSRSLCAIGSMQLESLLDEHDAKFPFATFAHRVVNLIPEGTLHFQTTYSDPEQSMEKKLGDTCTDGVSKLAVSMRKSGSVLARGSKTFYSPRTAISLNQFVPLTPSMKSRTRRIDSLDSYRLISEIGVGAFGTVKLGTKDP | not soluble |
| MRLIHLSDIHAGKNLGRVSRNEDVVYALNQVVDFCKENKPDLVLVAGDVFDKANPDNEAKEIIFDFFLKLHSLNIPSVVISGNHDSYEFMKSLKKLLQVIDVYVVPKPNLEECVLDVKGLKIACLPYPSERVLTRAGEDSKLSYAVLVEKAIKYLYEKVKDAPLKVLLSHLFIAGSKYTRTEREATITDYYAVEPSAIPEGFDYVALGHVHRYQRIEKAPTHVYYTGSLFQLDFSEAGQEKFFNFVELKEGEPPHVEAIKLSLKNPLHTFEINQENYAKELEKIKDVQGYIKVHLIVKDKTKMHLVAEKVKEALGEKLIKLELLTPEEAIKKRLEEEREIQKLNLLDLYRDYFKESYGREVPQEIIKTVSQLLEQVHES | soluble |
| MRLNIAPAPWPGAPVVVLSAGLGGGGGYWLAQRAALEEQYQLVSYDHNGTGENAGPLPAGYSLATMAGELFSALQAAGIARFALVGHALGALIGLQLALDRPEAVSALALVNGWLSLSPHTRRCFQVRERLLHAGGAQAWVEAQPLFLYPAEWMAARLPRLEAEDALAISHFQGKENLLKRLQALKQADFSRRASAIACPTLIISAADDLLVPASCSRVLQTAIPGSQLVEMPWGGHACNVTDADTFNTILRDGLSAMLPVARETR | not soluble |
| MRLNLRQLQIFCAITRFGSTTSAGNALALSQSATSAALNELEGALGTRLFDRVGKRLVLNDSGQSLLPRAMKMLENAQQIEDSFLLPDTTLNARLRIGSSSTIGNYELPSIVGALRESAPLLRVDVDIGNSALIARKVARFEIVMGLIEAPCHLPELIAEPWSVDEMVIVAGINHPLARQKQVSLGELQDAEWLLREPGSGTREEVEHLLLRHLHDLQDLREIGSSEAIKRTLAQGIGISCLSRRVVADLLASGQLKALASPLPPLNRRFFMIRHRDKFISPSLERFREACRQATDQAATLRHGLSHNASPTSSTTP | not soluble |
